Assay results from patent US20150258217A1, “Methods of Synthesizing and Using Peg-Like Fluorochromes” (THE GENERAL HOSPITAL CORPORATION, priority 2012, published 2015).

Assays:
[1] = test system: HT-29, a human colon carcinoma cell line; assay: PN and peptide binding to cells (non-specific binding, FACS); assay type: cell-based; conditions: HT-29 cells, 30 min at 37° C., FACS
Method: HT-29, a human colon carcinoma cell line, was from the American Tissue Culture Collection and maintained according to their instructions. Cells were seeded on 24-well plates at 5×10^5 cells/well in culture medium (RPMI 1640 with 10% FBS) the day before the assay. The day of assay, medium was removed, wells rinsed twice with DPBS (+Ca, +Mg), and 100 μl of 2% FBS/DPBS (+Ca, +Mg) added. 100 μL of Nanoprobes (2 μM) in DPBS (+Ca, +Mg) was added to cells and incubated for 30 min at 37° C. (Probe concentrations were determined spectrophotometrically (783 nm, extinction coefficient of 314 471 cm^−1 M^−1 for IR-783; 497 nm, extinction coefficient of 68 000 cm^−1 M^−1 for Fluorescein; 545 nm, extinction coefficient of 150 000 cm^−1 M^−1 for Cy3). Cells were detached by Trypsin/EDTA and assayed for fluorescence by FACS (BD 7 laser LSR2 for nanoprobes with IR-783; BD 3 laser LSR2 for nanoprobes with Fluorescein or Cy3).

[2] = PN and peptide size (volume, diameter) by FPLC gel filtration (Superdex 200, globular protein standards); assay type: physicochemical; conditions: for Molecular Volume FPLC: Table 3B, dipeptides; for Volume FPLC (diameter) / Volume FPLC: Table 5; for Volume FPLC (diameter): converted from globular protein equivalent MW; for Volume FPLC: globular protein equivalent molecular weight
Method: DOTA-Lys-Cys(IR783)-NH2 is then dissolved in DMSO, with 2 equivalents of an NHS ester of PEG and 6 equivalents of DIPEA. The reaction was at room temperature for 5 days. Product was purified by reverse phase HPLC separation. Product molecular weight was by matrix-assisted laser desorption ionization time-of-flight mass spectrometry (MALDI-TOF MS), with product molecular volume by size exclusion FPLC using globular protein standards (GE Healthcare life science AKTApurifier 10).
The mass spec of low molecular weights (MW) were obtained by MS-ESI Micromass (Waters) and high MW molecules were determined through MALDI-TOF analyses at the Tufts University Core Facility. RP-HPLC (Varian ProStar detector and delivery modules) employed an eluant A (0.1% TFA/water) and eluant B (0.1% TFA and 9.9% water in acetonitrile). Probe size (volume) was determined by FPLC using an ÄKTA Purifier 10 and Superdex™ 200 10/300GL column (GE Healthcare) with a running buffer of 0.05 M sodium phosphate, 0.15 M NaCl (0.1% Tween, pH 7.2) and flow rate of 0.8 ml/min. Standards (GE Healthcare) were Ferritin, Ribonuclease A, Carbonic Anhydrase, and Conalbumin and Blue Dextran 2000. To obtain probe volumes, Mr (apparent molecular weight based on size exclusion retention) was plotted versus Kav. Kav=(Ve−Vo)/(Vt−Vo), Vt=total volume, Ve=elution volume, Vo=void volume.
The column was calibrated with globular protein standards, and globular protein equivalent molecular weights (in kDa) were obtained (Table 5, column 5). These were converted to PN diameters in nm using the relationship: Radius in nm=[…] where M is the molecular weight of a globular protein expressed in daltons (see Erickson, “Size and Shape of Protein Molecules at the Nanometer Level Determined by Sedimentation, Gel Filtration, and Electron Microscopy”, Biological Procedures Online 2009, 11(1): 32-50). PN's diameters ranged from 3.0 to 11.8 nm (see FIG. 23a). Using PEG's of 5 kDa and 30 kDa, selected for their low polydispersity, PN's were synthesized using IR-783, Cy3 and Fluorescein (see FIG. 22a) and their sizes determined (see FIGS. 23a, 23b, 23c). With the 5 kDa PEG and these three fluorochromes (see the magenta chromatograms in FIGS. 22a, 23b and 23c) PN diameters were 4.3 nm. With the 30 kDa PEG and these three fluorochromes (blue chromatograms, 23a, 23b, 23c), PN diameters were now 10.0 nm. For reference, the diameter of a 67 kDa albumin determined by this method was 5.4 nm.

[3] = Circulating form of PN's (FPLC of serum after IV injection); assay type: in vivo, mouse; conditions: nude mice, 20 nmoles
Method: 20 nmoles of PN(783)4.3, PN(783)6.1, or PN(783)10.0 was injected (IV, tail vein) into nude mice (female; 25-30 g; 6-8 weeks old; nu/nu). At the indicated time, 50 μl of blood was collected with microhematocrit capillary tube (Fisher Scientific) from the tail, and transferred to Eppendorf microcentrifuge tube with anticoagulant (EDTA) coating (Fisher Scientific). Tubes were centrifuged (5000 rpm for 5 minutes), and the supernatant was injected to the FPLC, a ÄKTA Purifier 10 with Superdex™ 200 10/300GL column.

[4] = Quantum yield determination; assay type: physicochemical; conditions: for Quantum Yield: Table 3B, IR-783 dipeptides; for Quant. Yield: Table 5, in PBS
Method: Quantum yields were determined as described in Demas et al., “Measurement of photoluminescence quantum yields. Review”, Journal of Physical Chemistry 75, 991-1024 (1971), and Shao et al., “Facile Synthesis of Monofunctional Pentamethine Carbocyanine Fluorophores. Dyes and pigments: an international journal 90, 119-122 (2011). For IR-783 a reference quantum yield of 0.043 was used (see Li et al., “Synthesis and characterization of glucosamine-bound near-infrared probes for optical imaging”, Organic letters 8, 3623-3626, 2006); for fluorescein a reference quantum yield was […] (see Sjoback et al., “Absorption and florescence properties of fluorescein”, Spectrohimica Acta Part A 51, L7-L21, 1995). For Cy3 a reference quantum yield of 0.31 was used (Luminprobe Inc). For PN(783)'s, excitation was at 730 nm and emission spectra were recorded from 765 nm to 870 nm in PBS and maximum emission used. For PN(545)'s, excitation was at 515 nm and emission spectra were recorded from 538 nm to 700 nm in PBS and maximum emission used. For PN(497)'s, excitation was at 450 nm and emission spectra were recorded from 475 nm to 620 nm in PBS and maximum emission used. Absorbance of each probe was adjusted less than 0.1. Measurements were made in triplicate and are expressed as mean±SD.

HT-29 tumor = assay type: in vivo, mouse
Excerpt: A Kodak FX multispectral imaging system was used (Carestream Molecular Imaging, Rochester, N.Y.). Excitation at multiple wavelengths (620, 650, 690, 710, 720, 730, 750 and 760 nm) with the emission at 830 nm was setup for IR-783 spectrum; Excitation at multiple wavelengths (420, 440, 460, 480, 510, 520, 530, and 540 nm) with the emission at 600 nm was setup for Cy3 spectrum; Excitation at multiple wavelengths (450, 470, 510, 520, 530, 540, 550, 570, and 590 nm) with the emission at 700 nm was setup for mCherry; with manufacturer's software to separate (unmix) the IR-783 spectrum, Cy3 spectrum, or mCherry spectrum from skin autofluorescence and chlorophyll fluorescence from food. X-ray images were taken after fluorescence images. Animals were anesthetized with 2% isoflurane with O2 flow (2 I/min) during imaging.
Female nude mice (25-30 g; 6-8 weeks old; nu/nu) were anesthetized with 2% isoflurane/O2. HT-29 or mCherry-HT-29 cells were detached, pelleted and 200 μl of cell suspension containing 10^6 cells in Matrigel (BD Bioscience) was injected subcutaneously into right and left shoulders. Tumors were allowed to grow 5-7 days before experiments.
The imaging was performed by Triumph II multimodality imaging system (Gamma Medica Ideas, LLC) comprising XSPECT with four CZT (Cadmium Zink Telluride) detectors and X-O CT with CMOS detector. SPECT data of the ^111In-labeled compound was acquired for 60 minutes using 5-pinhole collimators and processed with 3D-OSEM algorithm using 4 subsets and 5 iterations. 3-dimensional CT data was processed with modified Feldkamp software. […] Animals were under isoflurane anesthesia (1.5%) with O2 flow (1.5 l/min) and kept warm during the imaging with a heated animal bed.
150 μl of ^111In-labeled PN(783)10 (400 μCi, ˜2 nmole) were injected to tumor-bearing animals by tail vein (IV). 24 hours or 48 hours later, animals were sacrificed, and tumors, blood, liver, spleen, stomach, kidneys, small intestine, lung, heart, tail, fat, and muscle, were collected. Radioactivity was measured with Perkin Elmer, Wizard2 2480 gamma counter.

[5] = mouse, in vivo
Method: At two hours post injection, agent is in the blood and interstitium. By 24 hours post injection, tumors are becoming apparent as agent is being cleared. At 48 hours, labeling is highly tumor selective. […] By surface fluorescence, as with SPECT, labeling is highly tumor selective at 48 hours. Biodistribution as organ radioactivity concentrations FIG. 26(c) and total organ radioactivity FIG. 26(d) were obtained by dissection and ^111In counting at 24 hours and 48 hours post injection. Even at 48 hours post injection some 7.5% of injected dose is in the blood, with less than 5% in liver, even though the diameter of PN(783)10.0 exceeds that of albumin (6.7 nm). Data are means and standard deviations. […] By 72 hours, some 17% of injected dose was retained, approximately half of which was still in the blood based on FIG. 26d.

[6] = Blood half-life from serum fluorescence after tail injection; assay type: in vivo; conditions: mouse, IV; single decay constant fit
Method: Using these procedures and PEG's of different molecular weights, PEG-like NIR fluorochromes of different molecular weights, volumes and pharmacokinetics were synthesized, with results summarized in Table 3B. Blood half-lives were determined by tail injection into mice and measuring serum fluorescence as a function of time. Data (fluorescence versus time) were fit to a single decay constant equation to yield blood half-lives. Human pharmacokinetics will be far slower than that of mice.

Substance	Cell NSB (percent of cells with fluorescence higher than unstained cell) [1] [%]	Molecular Volume FPLC [2] [kDa]	Volume FPLC (diameter) [2] [nm]	Volume FPLC [2] [kDa]	circulating form after injection (FPLC elution vs pre-injection sample) [3]	Quantum Yield [4]	Quant. Yield [4]	tumor concentration (HT-29 tumor; HT29 tumor, 48 hours post injection, IV) [% ID/gm]	injected dose in the kidney (HT-29 tumor; mouse, in vivo) [%]	injected dose in the liver (HT-29 tumor; mouse, in vivo) [%]	Whole body radioactivity half-life [5] [h]	Whole body radioactivity, % of injected dose [5] [%]	^111In-PN(783)10 elimination half-life [5] [h]	Serum half-life [6] [h]
(DOTA)Lys(PEG10K)-Cys(IR-783) [PN(783)6.1]	14	100.7	6.1	100.7	identical for pre-injection samples and for sera from injected mice	0.17	0.16	–	–	–	–	–	–	–
(^111In-DOTA)Lys(PEG30 kDa)-Cys(IR-783) [^111In-PN(783)10.0]	–	–	–	–	–	–	–	7.28±0.93	0.44±0.02	4.71±0.38	7.8	13.75±0.74	7.8	–
(DOTA)Lys(PEG20K)-Cys(IR-783) [PN(783)8.4]	14	262.5	8.4	262.5	–	0.17	0.16	–	–	–	–	–	–	0.293
(DOTA)Lys(PEG2K)-Cys(IR-783) [PN(783)3.0]	50	11.2	3.0	11.2	–	0.15	0.13	–	–	–	–	–	–	0.0233
